Experimental data: PMC3735542, “Light Driven CO2 Fixation by Using Cyanobacterial Photosystem I and NADPH-Dependent Formate Dehydrogenase” (PLoS ONE, 2013)
Read-outs that look alike come from different tables or passages of the source.

Assays:
Experiment in all cases: purified protein
[1] = tested on: T1, NC(=O)c1ccc[n+]([C@@H]2O[C@H](COP(=O)(O)OP(=O)(O)OC[C@H]3O[C@@H](n4cnc5c(N)ncnc54)[C@H](OP(=O)(O)O)[C@@H]3O)[C@@H](O)[C@H]2O)c1; type: biochemical, Pseudomonas sp. 101; conditions: 500 mM formate, PBS, 0.05% Triton X-100
T1 construct: synthetic gene in pET22b (NdeI/NotI), C-terminal His tag kept, E. coli BL21(DE3), about 44 kDa

[2] = tested on: T2, NC(=O)c1ccc[n+]([C@@H]2O[C@H](COP(=O)(O)OP(=O)(O)OC[C@H]3O[C@@H](n4cnc5c(N)ncnc54)[C@H](O)[C@@H]3O)[C@@H](O)[C@H]2O)c1; type: biochemical, Pseudomonas sp. 101; conditions: 500 mM formate, PBS, 0.05% Triton X-100
T2 construct: synthetic gene in pET22b (NdeI/NotI), C-terminal His tag kept, E. coli BL21(DE3), about 44 kDa

purified protein [3] = substrate: NC(=O)c1ccc[n+]([C@@H]2O[C@H](COP(=O)(O)OP(=O)(O)OC[C@H]3O[C@@H](n4cnc5c(N)ncnc54)[C@H](OP(=O)(O)O)[C@@H]3O)[C@@H](O)[C@H]2O)c1; type: biochemical, Solanum tuberosum; conditions: 500 mM formate, PBS, 0.05% Triton X-100; positions 197/199 from methods and Table 1, b33 prints 195/197
purified protein [4] = substrate: O=CO; conditions: 2 mM NADP+, PBS, 0.05% Triton X-100; same doubt on QN or QH
purified protein [5] = substrate: NC(=O)c1ccc[n+]([C@@H]2O[C@H](COP(=O)(O)OP(=O)(O)OC[C@H]3O[C@@H](n4cnc5c(N)ncnc54)[C@H](OP(=O)(O)O)[C@@H]3O)[C@@H](O)[C@H]2O)c1; type: biochemical, Arabidopsis thaliana

Molecule: Pseudomonas FDH (PsFDH) (Pseudomonas sp. 101; D222Q/H224N)
- Km [1]: 350 ± 10 µM
- Km [2]: 1000 ± 600 µM
- Vmax [2]: 0.55 µM/min

B1: potato FDH (PoFDH) (Solanum tuberosum; D224Q/L226H) (protein)
chain: LQASPGPKKIVGVFYKANEYAEMNPNFLGCAENALGIREWLESKGHQYIVTPDKEGPDCELEKHIPDLHVLISTPFHPAYVTAERIKKAKNLQLLLTAGIGSDHVDLKAAAAAGLTVAEVTGSNTVSVAEDELMRILILVRNFLPGHHQVINGEWNVAAIAHRAYDLEGKTVGTVGAGRIGRLLLQRLKPFNCNLLYHQRHKMDSELENQIGAKFEEDLDKMLSKCDIVVINTPLTEKTKGMFDKERIAKLKKGVLIVNNARGAIMDTQAVVDACNSGHIAGYSGDVWYPQPAPKDHPWRYMPNQAMTPHISGTTIDAQLRYAAGTKDMLDRYFKGEDFPAENYIVKDGELAPQYR
notes: synthetic gene in pET22b (NdeI/NotI), C-terminal His tag kept, E. coli BL21(DE3); primer encodes CNLLYH-X-R-X-KMDSEL
- Km (purified protein [3]): 620 ± 50 µM

B2: Arabidopsis FDH (AtFDH) (Arabidopsis thaliana; D227Q/L229N) (protein)
chain: ASSGDSKKIVGVFYKANEYATKNPNFLGCVENALGIRDWLESQGHQYIVTDDKEGPDCELEKHIPDLHVLISTPFHPAYVTAERIKKAKNLKLLLTAGIGSDHIDLQAAAAAGLTVAEVTGSNVVSVAEDELMRILILMRNFVPGYNQVVKGEWNVAGIAYRAYDLEGKTIGTVGAGRIGKLLLQRLKPFGCNLLYHQRNQMAPELEKETGAKFVEDLNEMLPKCDVIVINMPLTEKTRGMFNKELIGKLKKGVLIVNNARGAIMERQAVVDAVESGHIGGYSGDVWDPQPAPKDHPWRYMPNQAMTPHTSGTTIDAQLRYAAGTKDMLERYFKGEDFPTENYIVKDGELAPQYR
notes: synthetic gene in pET22b (NdeI/NotI), C-terminal His tag kept, E. coli BL21(DE3); partly digested on purification; primer encodes CNLLYH-X-R-X-QMAPEL
- Km (purified protein [4]): 96000 ± 14000 µM
- Km (purified protein [5]): 910 ± 70 µM
